According to patent publication US10172951B2, “Dendrimer based nanodevices for therapeutic and imaging purposes” (priority 2009, dated 2019):

Legend:
[1] = Cysteine triggered NAC release from PAMAM-S-S-NAC; format: physicochemical; conditions: pH 7.4
Description: (§1) Appropriate amounts of PAMAM-S—S-NAC conjugate were dissolved in release media (Citrate or PBS buffers) to form a solution of 1 mg/ml PAMAM-S—S-NAC. One of the thiol containing molecules (GSH, Cys or BSA) was added to the conjugates to form 10 mM, 2 mM, 0.5 mM 0.1 mM or 2 μM overall thiol group concentrations and to initiate the release of NAC. All samples were run as triplicates for statistical analysis.

[2] = GSH triggered NAC release from PAMAM dendrimer-NAC conjugates (RP-HPLC); format: physicochemical; conditions: for amount released: over 20 hours
Description: as §1
As control samples, conjugates were analyzed in both release media in the absence of reducing agents. The solutions were kept at 37° C. and stirred continuously. At predetermined time intervals, […] of samples were withdrawn and immediately analyzed with RP-HPLC and the concentrations of analytes were determined by using appropriate calibrations prepared under same conditions.
Dendrimer NAC conjugates were analyzed for their drug release mechanism and kinetics in the presence of GSH, Cys and BSA. Buffer solutions with pH 5 (Citrate Buffer) and pH 7.4 (Phosphate Buffered Saline) containing various concentrations of these thiol containing moieties were used in release studies.
All GSH concentrations studied were between average plasma (2 μM) and intracellular (2-10 mM) GSH levels. Various GSH concentrations were used in order to determine the GSH dependent release kinetics of the conjugate. The conjugate solutions contained 730 μM NAC in the conjugated form (1 mg/ml PAMAM-S—S-NAC) at the beginning of the release studies. GSH concentration in the release media was compared to the conjugated NAC concentrations in the release solutions for analysis of the release kinetics and mechanism.
The release of NAC from the conjugates was investigated in the presence of GSH at intracellular and extracellular concentrations. It was assumed that the release of NAC would occur by the disulfide exchange reaction. GSH and its oxidized form (GSSG) are responsible for forming the intracellular redox buffer. Intracellularly, GSH takes the role of attacking thiolate moiety and gets oxidized in the process while cleaving the existing disulfide bonds.
The conjugates were also analyzed in the absence of GSH to verify the stability of the disulfide linkage at physiological pH. […] The extent of the release of drug from both dendrimer-NAC conjugates was also analyzed at plasma and intracellular GSH concentrations. The conjugates and the GSH in required amounts were added to PBS solution, and the solution was analyzed at various time intervals by HPLC for up to 17 hours. UV absorbance peak areas were used to determine the concentrations of each of the species in the solution, based on appropriate calibration curves.

[3] = Stability of conjugate in bovine serum albumin (BSA) solution; format: physicochemical; conditions: pH 7.4 and pH 5, over 24 hours
Source text: To investigate the reducing activity of Cys in protein structures, bovine serum albumin (BSA) was chosen for release studies since it is the most abundant protein in plasma. Additionally, for intravenous administration of conjugates, it is important for the drug to stay intact with the carrier until the conjugate reaches its final destination within the body. Thus the release characteristic in the presence of albumin is crucial for intravenous applications. The release studies in the presence of BSA were carried out at pH 7.4 and pH 5 as well. The BSA concentrations used for the studies were adjusted so that the overall Cys concentrations in BSA release media were the same as the GSH and Cys release studies, discussed earlier. In addition to the five thiol concentrations studied, the stability of the conjugate at plasma BSA concentration was also analyzed.

BV-2 cells = assay: ROS assay, percent reduction in H2O2 in LPS-treated BV-2 cells (Example 19); format: cell-based, mouse; conditions: for reduction in H2O2 levels: 0.5 mM NAC (equivalent), co-treatment with LPS
Description: Cells were treated with lipopolysaccharide (LPS) to induce the production of ROS. The cells were treated with LPS (100 ng/ml) and either NAC, PAMAM-S—S-NAC, or free PAMAM-NH2 dendrimers at appropriate concentrations to study the efficacy of the conjugates for reducing the ROS concentrations. In order to quantify the efficacy of conjugates, H2O2 released from BV-2 cells (ROS) was measured using the Amplex Red Hydrogen Peroxide/Peroxidase Assay Kit using previously established procedures.

[4] = system: Mouse microglial cell line (BV-2); assay: In vitro cytotoxicity, MTT assay (Example 19)
Source text: In vitro cytotoxicity of the conjugate, dendrimer and NAC, at conditions similar to that used in the efficacy assays, was investigated by MTT assay. Mouse microglial cell line (BV-2) was obtained from Children's Hospital of Michigan Cell Culture Facility. These cells were used because the eventual in vivo applications seek to target microglial cells that become activated as a result of neuroinflammation.
The lipopolysaccharide (LPS) was used to activate the cells for the ROS assay. For the cytotoxicity study, the LPS treatment was continuous for 24 hours. For both groups, the LPS concentration used was 100 ng/ml. Three concentrations of NAC were studied: 0.5 mM, 2 mM and 8 mM. For the conjugate assays, the concentrations used corresponded to equivalent NAC doses of the free drug treatment groups. Similarly, the dendrimer assays were run by using dendrimer concentrations that were equivalent to conjugate treatments. Control groups included cells receiving only LPS and no other treatment and cells with no LPS or other treatment. The proportion of viable cells in the treated group was compared to that of negative control. The cell viability is expressed as mean±SD of three samples per group, and assessed by t-test.

Solubility in PBS/H2O = format: physicochemical
[5] = 10 mM GSH, PBS pH 7.4, within 1 hour
[6] = 10 mM GSH, after the initial 1 hour release (time not given)

With “PAMAM-NH—CO-Ethyl-S—S-NAC [PAMAM-S—S-NAC]” the “rate of NAC release with Cys compared to GSH” value [1] was “slightly faster rates”, the “NAC payload in GS-S-NAC (NAC-GSH) form” value [2, 5] was 19% and the “NAC payload released in free form” value [2, 5] was 47%. The “total NAC release” value [2, 5] was 66%, the “NAC payload as GS-S-NAC” value [2, 6] was 14% and the “NAC payload in free form” value [2, 6] was 41%. The NAC release ([2]; PBS buffer without GSH, 17 hours) was “did not release any of the NAC they carried”, the “duration of sustained drug release” value ([2]; lysosomal pH) was “about 8 hours” and the NAC release ([2]; pH 5, 2 μM GSH, within 20 hours) was “no significant amount NAC was released”. For the same substance, the amount released ([2]; pH 5, 100 μM GSH) was 15%, the amount released ([2]; pH 5, 500 μM GSH) was 58% and the “time to nearly completed release” value ([2]; pH 5, 2000 μM GSH) was “up to 20 hours”. For the same substance, the “time to nearly completed release” value ([2]; pH 5, 10,000 μM GSH) was ≤ 7 h, the “maximum extent of payload release” value ([2]; pH 5.0, intracellular GSH concentrations) was “about 90%” and the NAC payload released ([2]; pH 5, intracellular GSH concentrations (excess), within 20 hours) was 95%. For the same substance, the NAC release ([2]; pH 5, no GSH) was “did not release any NAC”, the NAC release ([2]; pH 7.4, 2 μM GSH) was “no detectable level of NAC released” and the NAC release ([2]; pH 7.4, 100 μM GSH) was 6%. It also gave an NAC release ([2]; pH 7.4, 500 μM GSH) of 31%, a payload released ([2]; pH 7.4, 2000 μM GSH) of 60% and a payload released ([2]; pH 7.4, 10,000 μM GSH) of 66%. For the same substance, the NAC release ([2]; pH 7.4, absence of GSH, within 3 days) was “did not release any NAC”, the “maximum extent of payload release” value ([2]; pH 7.4, intracellular GSH concentrations) was “approximately 65%” and the drug released ([2]; pH 7.4, intracellular GSH levels, in less than two hours) was “More than 60%”. For the same substance, the “NAC payload found as GS-S-NAC or NAC-NAC” value ([2]; plasma GSH concentration (2 μM)) was 1%, the “release of free NAC” value ([2]; plasma GSH concentration (2 μM), 17 hours) was “did not release any detectable levels of free NAC” and the “NAC release in presence of BSA” value [3] was “no NAC being released”. For the same substance, the “reduction in H2O2 levels” value (BV-2 cells; 24 hours) was 72%, the “reduction in H2O2 levels” value (BV-2 cells; 72 hours) was 101% and the “reduction in effective dose” value (BV-2 cells; 3 hours of treatment, lower drug doses (0.5 mM and 2 mM)) was ≤ 4 fold. For the same substance, the “reduction of effective dose of NAC” value (BV-2 cells; continuous treatment, 0.5 mM conjugate vs 8 mM free NAC) was “about 16 times”, the cell survival rate ([4]; highest dose) was 84% and the cell survival rate ([4]; lowest concentration of the conjugate) was “greater than 95%”. The “Solubility in PBS/H2O” value (Solubility in PBS/H2O) was “Highly”.
